The source of these data is publication PMC5460288, “In vitro assembly of the Rous Sarcoma Virus capsid protein into hexamer tubes at physiological temperature” (Scientific Reports, 2017).

Series [1] deals with RSV CA carrying the C-terminal spacer peptide (CA-SP, CA + 12) (Rous Sarcoma Virus (strain Prague C)). In words: cryo-EM structure; iterative real space helical reconstruction (SPRING) of one single-layered CA-SP tube, local C6 symmetrization of the turrets, 24 Å (FSC 0.143).
Series [2] concerns the molecule itself. Put plainly: negative-stain transmission electron microscopy; 600–700 μM protein dialyzed 16–24 h (overnight) at 37 °C against neutral pH (pH 7) buffer with 25–150 mM NaCl; uranyl acetate stain.

A word on the stoichiometry N: it is the number of molecules, sites or subunits per partner or assembly. Consider “RSV CA carrying the C-terminal spacer peptide (CA-SP, CA + 12) (natural protein)”, for which the stoichiometry N in series [1] was 6.

B1: Rous Sarcoma Virus capsid protein (RSV CA), wild type (natural protein)
chain: PVVIKTEGPAWTPLEPKLITRLADTVRTKGLRSPITMAEVEALMSSPLLPHDVTNLMRVILGPAPYALWMDAWGVQLQTVIAAATRDPRHPANGQGRGERTNLNRLKGLADGMVGNPQGQAALLRPGELVAITASALQAFREVARLAEPAGPWADIMQGPSESFVDFANRLIKAVEGSDLPPSARAPVIIDCFRQKSQPDIQQLIRTAPSTLTTPGEIIKYVLDRQKTAPLTDQGIA
notes: capsid protein (CA), the cut product of the Gag polyprotein of Rous sarcoma virus strain Prague C; the naturally occurring species denoted CA (without spacer peptide residues); also called wild type RSV CA; full length RSV CA; not shown: Mycobacterium xenopi GyrA intein (modified), C-terminal, cleaved
For B1, the “stoichiometry N” value in series [2] was 6.
